Residue numbers refer to the chain shown, from its start.

Series [1] concerns the target T1, Tfam WT (mature) (Homo sapiens, UniProt Q00059 43-246).
T1 sequence: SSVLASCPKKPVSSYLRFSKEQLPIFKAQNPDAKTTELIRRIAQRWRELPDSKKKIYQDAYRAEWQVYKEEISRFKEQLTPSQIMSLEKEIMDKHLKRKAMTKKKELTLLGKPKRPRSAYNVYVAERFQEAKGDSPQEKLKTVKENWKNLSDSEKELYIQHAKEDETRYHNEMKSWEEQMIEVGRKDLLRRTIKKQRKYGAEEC
The series can be described thus: FRET bending.

For series [2], the target named is T2, Tfam L6 (Homo sapiens, UniProt Q00059 43-246, K136A;H137A;K139A;R140A;K146A;K147A).
T2 sequence: T1 sequence with K94A, H95A, K97A, R98A, K104A, K105A
The series can be described thus: FRET bending.

For series [3], the target named is T3, Tfam T77A (Homo sapiens, UniProt Q00059 43-246, T77A).
T3 sequence: T1 sequence with T35A
Briefly: FRET bending.

The target of series [4] is T4, Tfam Y162A (Homo sapiens, UniProt Q00059 43-246, Y162A).
T4 sequence: T1 sequence with Y120A
The series can be described thus: FRET bending.

For series [5], the target named is T1, Tfam WT (mature). Briefly: intrinsic Trp fluorescence quenching.
Series [6] deals with T5, Tfam HMG-box B (Homo sapiens, UniProt Q00059 153-222).
T5 sequence: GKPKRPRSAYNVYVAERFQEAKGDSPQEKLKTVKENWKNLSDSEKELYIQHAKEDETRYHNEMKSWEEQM
The series can be described thus: intrinsic Trp fluorescence quenching.

Series [7] has as its target T2, Tfam L6. Briefly: intrinsic Trp fluorescence quenching.
The target of series [8] is T3, Tfam T77A. Briefly: intrinsic Trp fluorescence quenching.
Series [9] has as its target T6, Tfam HMG-box A (Homo sapiens, UniProt Q00059 43-122).
T6 sequence: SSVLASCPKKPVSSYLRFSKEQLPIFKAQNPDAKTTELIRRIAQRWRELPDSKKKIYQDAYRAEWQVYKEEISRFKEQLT
The series can be described thus: intrinsic Trp fluorescence quenching.

For series [10], the target named is T4, Tfam Y162A. Briefly: intrinsic Trp fluorescence quenching.

B1: LSP 28 bp Cy3/Cy5 (dsDNA)
DNA 1: TGTTAGTTGGGGGGTGACTGTTAAAAGT
DNA 2: ACTTTTAACAGTCACCCCCCAACTAACA
B1: the binding signal in series [1] is 36.5 ± 0.8 % FRET efficiency; in [2], 26.1 ± 0.6 % FRET efficiency; in series [3], 31.4 ± 0.2 % FRET efficiency; in [4], 29.4 ± 0.6 % FRET efficiency.

B2: LSP 28 bp (dsDNA)
DNA 1: TGTTAGTTGGGGGGTGACTGTTAAAAGT
DNA 2: ACTTTTAACAGTCACCCCCCAACTAACA
A word on the Kd: it is the equilibrium constant for the complex coming apart. The low end stands for higher affinity, the high end for lower affinity. Regarding B2, the equilibrium dissociation constant (Kd) worked out at 6 ± 0.9 nM in [5]; 411 ± 46 nM in [6]; 10.1 ± 1.2 nM in series [7]; 7.6 ± 1.1 nM in series [8]; 6.5 ± 1.2 nM in series [9]; 12.3 ± 1.8 nM in series [10].

The values are drawn from paper PMC3210390.
